For one assay, the target named is CD14 (human) (UniProt P08571). Nature of the assay: cell-based or functional assay.
Assay [1] has as its target human TLR4 (Toll-like receptor 4) (human) (UniProt O00206). As to the kind of experiment: cell-based or functional assay.
Sequence of UniProt O00206 (O00206 24-839): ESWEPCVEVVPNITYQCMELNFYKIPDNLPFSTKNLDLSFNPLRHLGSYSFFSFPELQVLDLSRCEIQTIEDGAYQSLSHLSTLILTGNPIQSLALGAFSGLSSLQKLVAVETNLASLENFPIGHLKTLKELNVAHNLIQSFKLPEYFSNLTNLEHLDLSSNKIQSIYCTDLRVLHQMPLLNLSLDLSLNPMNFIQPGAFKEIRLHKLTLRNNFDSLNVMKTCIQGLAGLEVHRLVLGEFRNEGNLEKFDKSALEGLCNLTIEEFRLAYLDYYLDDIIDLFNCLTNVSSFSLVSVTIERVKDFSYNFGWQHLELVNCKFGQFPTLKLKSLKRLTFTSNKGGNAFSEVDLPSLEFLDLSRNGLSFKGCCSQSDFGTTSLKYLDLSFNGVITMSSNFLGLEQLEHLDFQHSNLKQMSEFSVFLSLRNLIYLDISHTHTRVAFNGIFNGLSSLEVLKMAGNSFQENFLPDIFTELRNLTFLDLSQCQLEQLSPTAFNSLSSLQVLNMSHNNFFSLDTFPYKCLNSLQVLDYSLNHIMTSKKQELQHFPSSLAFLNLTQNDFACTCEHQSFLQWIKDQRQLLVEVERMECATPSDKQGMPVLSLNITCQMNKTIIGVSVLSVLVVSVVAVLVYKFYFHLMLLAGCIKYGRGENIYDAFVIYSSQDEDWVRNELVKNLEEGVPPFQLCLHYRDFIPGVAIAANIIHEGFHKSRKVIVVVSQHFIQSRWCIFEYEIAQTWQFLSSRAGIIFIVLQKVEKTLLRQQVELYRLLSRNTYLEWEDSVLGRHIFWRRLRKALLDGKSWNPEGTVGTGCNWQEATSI

Sequence of UniProt P08571 (P08571 20-345): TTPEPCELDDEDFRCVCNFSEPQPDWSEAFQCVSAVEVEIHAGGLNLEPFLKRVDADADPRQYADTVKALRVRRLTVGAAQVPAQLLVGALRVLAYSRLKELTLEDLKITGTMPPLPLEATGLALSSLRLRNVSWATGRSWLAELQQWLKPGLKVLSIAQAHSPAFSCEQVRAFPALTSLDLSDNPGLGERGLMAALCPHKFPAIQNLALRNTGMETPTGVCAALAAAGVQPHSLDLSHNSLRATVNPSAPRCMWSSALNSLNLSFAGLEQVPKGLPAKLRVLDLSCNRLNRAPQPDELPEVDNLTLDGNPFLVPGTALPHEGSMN

Consider “anti-CD14 neutralizing antibody (rhCD14, ref.: AB383, R&D Systems-UK)”, for which the inhibition of TNF-alpha secretion by human PBMCs stimulated with Env-SU, cells preincubated with anti-CD14 antibody in the assay with CD14 (human) was found to be 83%.
Substance “anti-human TLR4 monoclonal antibody HTA125 (eBioscience)” gave an inhibition of TNF-alpha secretion by human PBMCs stimulated with Env-SU, cells preincubated with anti-TLR4 antibody in assay [1] of 37%.

These data come from patent US7666420.
